Measurements: PMC2275076 (Nucleic Acids Research, 2007)

Target: the molecule itself
Test: SEC

B1: Methanococcus maripaludis O-phosphoseryl-tRNA:selenocysteinyl-tRNA synthase (SepSecS) (enzyme, UniProt Q6LZM9 1-436, looked up)
chain: MLDFNIEGLIPKNMEKRGELVLNEYLKEIEDVFNHRKIPENGIDDEKIKLFLKFLSMMDTDKDPKSVRIGEREARTYSKIHEELSSGFCHGIGRSGNLVDPQPKASGASIMYALTNKILESFFKQLGLNVHAIATPISTGMSISLCLSAARKKYGSNVVIYPYASHKSPIKAVSFVGMNMRLVETVLDGDRVYVPVEDIENAIKKEIELGNRPCVLSTLTFFPPRNSDDIVEIAKICENYDIPHIINGAYAIQNNYYLEKLKKAFKYRVDAVVSSSDKNLLTPIGGGLVYSTDAEFIKEISLSYPGRASATPVVNTLVSLLSMGSKNYLELVKNQKNSKKLLDELLNDLSKKTGGKFLDVESPIASCISVNSDPVEIAAKLYNLRVTGPRGIKKTDHFGNCYLGTYTHDYIVMNAAIGVRTEDIVNSVSKLEKILL
modifications: selenomethionine-labeled; PLP covalently bound via a Schiff base to Lys278
stoichiometry N: 4
